One test has as its target ap1m1_human AP1M1 (UniProt Q9BXS5).
A further test addresses ap2m1_rat Ap2m1 (UniProt P84092).

Sequence of Trans-Golgi network integral membrane protein TGN38 (Rattus norvegicus (Rat)), P19814 Y350A (P19814 whole entry Y350A): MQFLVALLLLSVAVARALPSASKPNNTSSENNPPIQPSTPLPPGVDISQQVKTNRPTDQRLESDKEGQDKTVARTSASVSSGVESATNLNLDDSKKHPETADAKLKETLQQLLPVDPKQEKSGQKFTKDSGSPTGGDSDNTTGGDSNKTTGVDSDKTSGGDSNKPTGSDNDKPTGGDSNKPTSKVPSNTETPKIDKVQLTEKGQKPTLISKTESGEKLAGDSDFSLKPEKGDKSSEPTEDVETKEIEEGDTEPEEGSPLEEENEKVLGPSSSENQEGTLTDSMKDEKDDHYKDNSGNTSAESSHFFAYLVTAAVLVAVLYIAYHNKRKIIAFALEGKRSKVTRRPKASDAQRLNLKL
Sequence of ap1m1_human AP1M1 (Q9BXS5 whole entry): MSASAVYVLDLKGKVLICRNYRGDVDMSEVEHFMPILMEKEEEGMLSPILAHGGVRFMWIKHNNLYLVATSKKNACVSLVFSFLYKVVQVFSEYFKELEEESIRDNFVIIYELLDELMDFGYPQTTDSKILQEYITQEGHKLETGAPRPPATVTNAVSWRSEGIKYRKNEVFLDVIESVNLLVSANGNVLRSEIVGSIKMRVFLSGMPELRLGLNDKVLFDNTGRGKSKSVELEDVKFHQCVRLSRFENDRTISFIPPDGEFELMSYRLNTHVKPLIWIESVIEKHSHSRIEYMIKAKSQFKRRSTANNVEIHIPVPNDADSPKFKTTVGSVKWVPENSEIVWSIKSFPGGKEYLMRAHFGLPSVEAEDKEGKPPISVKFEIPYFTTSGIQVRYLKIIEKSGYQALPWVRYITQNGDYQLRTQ
Sequence of ap2m1_rat Ap2m1 (P84092 whole entry): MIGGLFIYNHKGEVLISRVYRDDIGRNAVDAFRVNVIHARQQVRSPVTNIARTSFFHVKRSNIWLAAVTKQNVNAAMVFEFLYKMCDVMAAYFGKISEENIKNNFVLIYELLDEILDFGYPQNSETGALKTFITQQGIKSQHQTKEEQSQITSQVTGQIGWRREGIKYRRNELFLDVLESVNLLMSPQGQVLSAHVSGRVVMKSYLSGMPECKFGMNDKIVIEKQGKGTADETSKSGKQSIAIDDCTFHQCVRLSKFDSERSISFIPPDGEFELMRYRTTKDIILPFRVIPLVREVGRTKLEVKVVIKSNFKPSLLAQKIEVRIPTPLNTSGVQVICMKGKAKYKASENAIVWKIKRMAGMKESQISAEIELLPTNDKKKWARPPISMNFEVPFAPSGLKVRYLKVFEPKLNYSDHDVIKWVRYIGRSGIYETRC

On to “Trans-Golgi network integral membrane protein TGN38 (Rattus norvegicus (Rat)), P19814 Y350A”, for which the “effect of a mutation on the interaction” value in the test with ap1m1_human AP1M1 and with ap2m1_rat Ap2m1 was “decreasing interaction” throughout.

The record behind these values is IntAct's records for PubMed 9341158.
